Measurements as given in patent US20210275586A1.

Molecular target: CD20 antigen on CD20 positive Jeko-1 cells (human) (UniProt P11836)
Experiment: flow cytometry on CD20+ Jeko-1 cells, secondary staining with anti-Biotin APC

UniProt P11836, sequence (P11836 whole entry): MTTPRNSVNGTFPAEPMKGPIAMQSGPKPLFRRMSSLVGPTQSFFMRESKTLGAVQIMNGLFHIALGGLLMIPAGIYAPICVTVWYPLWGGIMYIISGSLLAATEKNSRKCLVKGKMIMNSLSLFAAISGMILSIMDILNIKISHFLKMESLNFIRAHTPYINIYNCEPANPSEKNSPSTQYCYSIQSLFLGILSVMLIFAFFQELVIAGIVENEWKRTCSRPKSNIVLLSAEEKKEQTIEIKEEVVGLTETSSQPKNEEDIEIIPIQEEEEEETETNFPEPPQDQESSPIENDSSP

- lowest concentration at which binding was detected: 0.1 µg/mL
Substance: biotin-crosslinker conjugated anti-CD20 FAb (Rtx Fab MS2)
